Patent publication US20230265151A1, “GIP/GLP1 CO-AGONIST COMPOUNDS” (priority 2020, published 2023)
Numbering of substitutions follows the chain as printed.

B1: Example 92 (peptide)
peptide: YXEGTXTSDVSIXLDXKAQXEXIXXLIEGGKSSGAPPPS
modifications: Aib2, αMeF(2F)6, αMeL13, Orn16, Aib20, αMeF22, D-Glu24, αMeY25, K17 and K31: K(AEEA2-(γ-Glu)-CO-(CH2)12-CO2H), C-terminal NH2
B2: Example 72 (peptide)
peptide: YXEGTXTSDXSIXLDXIAQXEFIKXLIEGGPSSGAPPPSK
modifications: Aib2, αMeF(2F)6, 4Pal10, αMeL13, Orn16, Aib20, αMeY25, K24 and K40: K(AEEA2-(γ-Glu)-CO-(CH2)12-CO2H), C-terminal NH2
B3: Example 75 (peptide)
peptide: B2 peptide with E21K, K24X
modifications: Aib2, αMeF(2F)6, 4Pal10, αMeL13, Orn16, Aib20, D-Glu24, αMeY25, K21 and K40: K(AEEA2-(γ-Glu)-CO-(CH2)12-CO2H), C-terminal NH2
B4: Example 68 (peptide)
peptide: YXEGTXTSDXSIXLDXKAQXEFIEKLIEGGPSSGAPPPS
modifications: Aib2, αMeF(2F)6, 4Pal10, αMeL13, Orn16, Aib20, K17 and K25: K(AEEA2-(γ-Glu)-(4-(4-tert-butylphenyl)butanoyl)), C-terminal NH2
B5: Example 70 (peptide)
peptide: B4 peptide with K17I, E24K, K25X, E28K
modifications: Aib2, αMeF(2F)6, 4Pal10, αMeL13, Orn16, Aib20, αMeY25, K24 and K28: K(AEEA2-(γ-Glu)-CO-(CH2)12-CO2H), C-terminal NH2
B6: Example 96 (peptide)
peptide: B1 peptide with V10X, X22F
modifications: Aib2, αMeF(2F)6, 4CPhe10, αMeL13, Orn16, Aib20, D-Glu24, αMeY25, K17 and K31: K(AEEA2-(γ-Glu)-CO-(CH2)12-CO2H), C-terminal NH2
B7: Example 99 (peptide)
peptide: B1 peptide with V10X
modifications: Aib2, αMeF(2F)6, 4Pal10, αMeL13, Orn16, Aib20, 2Nal22, D-Glu24, αMeY25, K17 and K31: K(AEEA2-(γ-Glu)-CO-(CH2)12-CO2H), C-terminal NH2
B8: Example 94 (peptide)
peptide: B1 peptide with V10X
modifications: Aib2, αMeF(2F)6, Ac5c10, αMeL13, Orn16, Aib20, αMeF22, D-Glu24, αMeY25, K17 and K31: K(AEEA2-(γ-Glu)-CO-(CH2)12-CO2H), C-terminal NH2
B9: Example 76 (peptide)
peptide: B4 peptide with E21K, E24X, K25X
modifications: Aib2, αMeF(2F)6, 4Pal10, αMeL13, Orn16, Aib20, D-Glu24, αMeY25, K17 and K21: K(AEEA-(γ-Glu)-CO-(CH2)12-CO2H), C-terminal NH2
B10: Example 90 (peptide)
peptide: B1 peptide with X22F
modifications: Aib2, αMeF(2F)6, αMeL13, Orn16, Aib20, D-Glu24, αMeY25, K17 and K31: K(AEEA2-(γ-Glu)-CO-(CH2)12-CO2H), C-terminal NH2
B11: Example 97 (peptide)
peptide: B1 peptide with V10X, X22F
modifications: Aib2, αMeF(2F)6, ChG10, αMeL13, Orn16, Aib20, D-Glu24, αMeY25, K17 and K31: K(AEEA2-(γ-Glu)-CO-(CH2)12-CO2H), C-terminal NH2
B12: Example 82 (peptide)
peptide: B1 peptide with V10X, X24K, K31P
modifications: Aib2, αMeF(2F)6, 4Pal10, αMeL13, Orn16, Aib20, αMeF22, αMeY25, K17 and K24: K(AEEA2-(γ-Glu)-CO-(CH2)12-CO2H), C-terminal NH2
B13: Example 77 (peptide)
peptide: B4 peptide with E21K, E24X, K25X
modifications: Aib2, αMeF(2F)6, 4Pal10, αMeL13, Orn16, Aib20, D-Glu24, αMeY25, K17 and K21: K(AEEA3-(γ-Glu)-CO-(CH2)12-CO2H), C-terminal NH2
B14: Example 88 (peptide)
peptide: B1 peptide with V10X
modifications: Aib2, αMeF(2F)6, 4Pal10, αMeL13, Orn16, Aib20, αMeF(2F)22, D-Glu24, αMeY25, K17 and K31: K(AEEA2-(γ-Glu)-CO-(CH2)12-CO2H), C-terminal NH2
B15: Example 84 (peptide)
peptide: B1 peptide with V10X, X24K, K31P
modifications: Aib2, αMeF(2F)6, 4Pal10, αMeL13, Orn16, Aib20, αMeF22, αMeF25, K17 and K24: K(AEEA2-(γ-Glu)-CO-(CH2)12-CO2H), C-terminal NH2
B16: Example 81 (peptide)
peptide: B4 peptide with E24K, K25X
modifications: Aib2, αMeF(2F)6, 4Pal10, αMeL13, Orn16, Aib20, αMeY25, K17 and K24: K(AEEA2-CO-(CH2)12-CO2H), C-terminal NH2
B17: Example 95 (peptide)
peptide: B1 peptide with V10X, X22F
modifications: Aib2, αMeF(2F)6, Ac4c10, αMeL13, Orn16, Aib20, D-Glu24, αMeY25, K17 and K31: K(AEEA2-(γ-Glu)-CO-(CH2)12-CO2H), C-terminal NH2
B18: Example 69 (peptide)
peptide: B4 peptide with K17I, E21K, E24K, K25X
modifications: Aib2, αMeF(2F)6, 4Pal10, αMeL13, Orn16, Aib20, αMeY25, K21 and K24: K(AEEA2-(γ-Glu)-CO-(CH2)12-CO2H), C-terminal NH2
B19: Example 103 (peptide)
peptide: B1 peptide with V10X, E21G, X22F
modifications: Aib2, αMeF(2F)6, 4Pal10, αMeL13, Orn16, Aib20, D-Glu24, αMeY25, K17 and K31: K(AEEA2-(γ-Glu)-CO-(CH2)12-CO2H), C-terminal NH2

Biological target: human glucagon receptor (human, UniProt P47871 26-477)
Experiment: cell-based or functional assay

Row | Binder | EC50, cAMP [nM]
1 | B1 | > 9950
2 | B2 | > 9950
3 | B3 | > 9950
4 | B4 | > 9950
5 | B5 | > 9950
6 | B6 | > 9950
7 | B7 | > 9950
8 | B8 | > 9950
9 | B9 | > 9950
10 | B10 | > 9950
11 | B11 | > 9950
12 | B12 | > 9950
13 | B13 | > 9950
14 | B14 | > 9950
15 | B15 | > 9950
16 | B16 | > 9950
17 | B17 | > 9950
18 | B18 | > 9950
19 | B19 | > 9950

Biological target: T1, human GIP receptor (human, UniProt P48546 22-466)
T1 sequence (looked up): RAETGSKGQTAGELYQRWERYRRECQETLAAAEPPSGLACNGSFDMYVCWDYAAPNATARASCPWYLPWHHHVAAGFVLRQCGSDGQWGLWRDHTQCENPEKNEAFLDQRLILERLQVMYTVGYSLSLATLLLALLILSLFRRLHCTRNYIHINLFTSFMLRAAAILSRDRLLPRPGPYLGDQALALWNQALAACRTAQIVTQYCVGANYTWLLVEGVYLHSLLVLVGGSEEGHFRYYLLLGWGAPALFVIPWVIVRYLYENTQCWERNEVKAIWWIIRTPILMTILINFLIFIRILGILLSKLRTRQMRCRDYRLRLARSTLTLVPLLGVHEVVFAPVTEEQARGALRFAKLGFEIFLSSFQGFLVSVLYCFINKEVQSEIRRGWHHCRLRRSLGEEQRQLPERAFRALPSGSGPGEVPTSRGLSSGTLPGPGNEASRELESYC
Experiment: cell-based or functional assay

Row | Binder | EC50, cAMP [nM] | Emax, cAMP [%]
20 | B1 | 0.0251 | 
21 | B2 | 0.016 | 96.5
22 | B3 | 0.0182 | 92.3
23 | B4 | 0.0105 | 
24 | B5 | 0.0182 | 89.1
25 | B6 | 0.0484 | 
26 | B7 | 0.0235 | 
27 | B8 | 0.0132 | 
28 | B9 | 0.0205 | 
29 | B10 | 0.0436 | 93
30 | B11 | 0.0276 | 
31 | B12 | 0.0206 | 81.4
32 | B13 | 0.0288 | 
33 | B14 | 0.00884 | 85.1
34 | B15 | 0.0315 | 98.5
35 | B16 | 0.0114 | 
36 | B17 | 0.0748 | 
37 | B18 | 0.0265 | 99
38 | B19 | 0.0305 | 92.8

Biological target: human GLP-1 receptor (human, UniProt P43220 24-463)
Experiment: cell-based or functional assay

Row | Binder | EC50, cAMP [nM] | Emax, cAMP [%]
39 | B1 | 0.942 | 
40 | B2 | 0.245 | 
41 | B3 | 0.411 | 
42 | B4 | 0.668 | 95.9
43 | B5 | 0.283 | 
44 | B6 | 6.81 | 
45 | B7 | 0.349 | 
46 | B8 | 2.1 | 97.4
47 | B9 | 0.527 | 
48 | B10 | 0.221 | 96.2
49 | B11 | 0.683 | 
50 | B12 | 4.78 | 
51 | B13 | 3.03 | 87
52 | B14 | 6.08 | 97.1
53 | B15 | 5.27 | 94
54 | B16 | 0.176 | 
55 | B17 | 0.181 | 
56 | B18 | 0.276 | 
57 | B19 | 2.1 | 
